Test: soluble on expression in E. coli; label from the status in PepcDB or PDB records

Sequence | soluble on expression in E. coli
MSLNKRKGILAIGAHPDDIELGCGASLARLAQKGIYIATVVMTTGNSGVDGIIDRHEESRNALKILGCHQTIHLNFADTRAHLQLNDMISALENIIKNQIPSDVEIIRVYTMHDADRHQDHLAVYQASMVACRAIPQILGYETPSTWLSFMPQVFESVKEEYFSLKLTALKKHKSQSQRDYMRPERLRAVAQFRGQQVNSDLGEGFVIHKMILEGHHHHHH | not soluble
MGSDKIHHHHHHMQTFLKGKRVGYWLSEKKIKKLNFQAFAELCRKRGMEVVQLNLSRPIEEQGPLDVIIHKLTDVILEADQNDSQSLELVHRFQEYIDAHPETIVLDPLPAIRTLLDRSKSYELIRKIEAYMEDDRICSPPFMELTSLCGDDTMRLLEKNGLTFPFICKTRVAHGTNSHEMAIVFNQEGLNAIQPPCVVQNFINHNAVLYKVFVVGESYTVVQRPSLKNFSAGTSDRESIFFNSHNVSKPESSSVLTELDKIEGVFERPSDEVIRELSRALRQALGVSLFGIDIIINNQTGQHAVIDINAFPGYEGVSEFFTDLLNHIATVLQGQSTAMAATGDVAL | soluble
MSSSSESDSEGERKLPLSYRRKRRRDSSSTTNSEVSDNDRKKRQNEKRRSRESSKMKHQKTAKRDKPMWKEEGEISCDSESDVCNSSSSNNRSRCRDRRRRTDYGRRRHRNSDSRSHERWSTRRRQTTPEGNFRCDECGCNHYTLKGLIHHEMNDHNLNAKCHLCQKSFENKKTFREHCELDHTPEVVRCVFCKSSFDQPLEMNDEQWAHFFAHIYGEILYSRLADYEDRALNTA | not soluble
MARPLKQGIDYFPLSVDFLRDIKVRKIKRACGPYTVEILLCLLGNIYRETGYYIGWDEDTMFLVADEVGAKEGLVEETVNKAVQVGFFNQEKFNEYRILTSNGIQKRYLEATKKRKEVVISDIYLVNDTIKDEETLVNGVDNEQSKVNKSKVDKSKVNKNNKEKPAVQLSSEKDFLENPLGDKKTAELIAYYSKNVSLATPVNMTNLAYDLKDFNGDLDLLKEAINICSSNVKTYAYFAGILKQWRANGINTHADFLKKVNKKSKQKNKRDSEPPLNDYSGLF | not soluble
MRKRARIIYNPTSGKELFKRVLPDALIKLEKAGYETSAYATEKIGDATFEAERALESEYDLLIAAGGDGTLNEVVNGIAEQPNRPKLGVIPMGTVNDFGRALHLPSDIMGAIDVIIDGHTTKVDIGKMNNRYFINLAAGGKLTQVSYETPSKLKSIVGPFAYYIKGFEMLPQMKAVDVRIEYDDNIFQGEALLFLLGLTNSMAGFEKLVPDAKLDDGYFTLIIVEKANLAELGHIMTLASRGEHTKHPKVIYAKAKSINISSFTDMQLNVDGEYGGKLPANFLNLEQHIEIFTPKDVFNEELLENDTITDITPDKQ | not soluble
MGSDKIHHHHHHMGEIVLAAKCTHVPTMLMSEQEGPVKGKRQAAIDGHLEIARRARALGADTVVICDTHWVINAGFHINANSRFQGLFTSNEFPQFIQNMPYDYEGNPGLGDAIAKEASARGAYTLAHHLDSLELEYGTLVPMRFMSREHKMKVVSVAAWCTVHDHDESRIVGEAIRAAVEASNSKVLLVASGSLSHKIWPNKDYAANNGTFTISSEFNRQMDLHVLEMWKRGDHATFLKMLGDYARFCCGEGSMHDTAMLYGALGWDSYDKPCEVVTEYFPSSGTGQTNVIFPV | not soluble
MGTPVVWEGNIGNPPEHKSFPNGNNEPRQLLRLNVMFDNSIPDGSGGYKDRGGFWANVEWWHPDAERFAQLFSKGMRVVVTGRAIMDTWKDKETGDDVWALKVEANRVAILPHRVNQVTMTQSNNTGQRQNAQQNNRPERQQNSAQQPGQHTDDLSHYGNGFDDDIPVLEHHHHHH | soluble
MGHHHHHHSHGGVGKKEQLSVKKLRVVLFALCCNTEQAAEHFRNPQRRIRRWLRRFQASQGENLEGKYLSFEAEEKLAEWVLTQREQQLPVNEETLFQKATKIGRSLEGGFKISYEWAVRFMLRH | not soluble
MEHTKKFKSLNLHGFDRSTEDYGKRPFVLTAKLLEDQKKAIYGCAFNQYAGIDEEQAVATVGGSFLHMYSVPIDINNIELQWSCNFPTDKSSKVEREESLFTVTWCYDTYEAENDRNPFKVVTGGTLGHIYVIDYVSRKLSNRLRSVGWEINDIRTCPANSNLIVCASSDQSIRIHHIRNEACLIVIGGLECHAGTILSVDWSTDGDFILSCGFDHQLMEWDLSVKQVKEHLERACKALHQDKINVLTQSQDIPYVSKGTMRKSAVSRNIPDKEEDQLLELHRELIPRPSCLLPIYTPSSVSTDMHSDYVDCIRFLIGTNYALSKGCGNEKAIHFWRFGPPKGEVENRIHGNVLRPKSCTTKFRTMNVPSGSAWFIKFAVDPRRRWLVCGGAGGSVMFFDLRNNEETNPTHTCSVGSRTVRQASFSTCGRFLVLVTDEGFVCRFDRVSASVDAKDLFLMSSPTSSKDYSSPKHSFMLTVDSNLQSDKKKTFLNVQSSSSAGSTKHCQIPMSKDEYFETRGKLDSVDVIDQFRQRQQ | not soluble
MGHHHHHHSHMTTPRSAPLYKLKSEDGQIFNVERGPMKFCAFINQKFIDHGVNDRNCERADPILVPFHSSIVQAVIEWLYHYQDNPLARRDSKIRYHDFSEWDKQFFNVESGVLFALLNASHALGVEDLMNMGCAAAAELIRGKSTEEIRKIYGIRSDEEQMEEALANGGEGTSAMTFTTDSD | soluble
MQLILLLVSLLMLIATFIEARDSDIDKKSLRTERLGFCPRYETWRKCGNGCEKSCTHPRQPPFSQCKLPCIPYSCRCNPGFYRDNQGTGRCVRLRRCKKW | not soluble
MTEPDVAGAPASKPEPASTGAASAAQLSGYSRVLLKLGGEMFGGGQVGLDPDVVAQVARQIADVVRGGVQIAVVIGGGNFFRGAQLQQLGMERTRSDYMGMLGTVMNSLALQDFLEKEGIVTRVQTAITMGQVAEPYLPLRAVRHLEKGRVVIFGAGMGLPYFSTDTTAAQRALEIGADVVLMAKAVDGVFAEDPRVNPEAELLTAVSHREVLDRGLRVADATAFSLCMDNGMPILVFNLLTDGNIARAVRGEKIGTLVTT | soluble
SGFEFHGYARSGVIMNDSGASTKSGAYITPAGETGGAIGRLGNQADTYVEMNLEHKQTLDNGATTRFKVMVADGQTSYNDWTASTSDLNVRQAFVELGNLPTFAGPFKGSTLWAGKRFDRDNFDIHWIDSDVVFLAGTGGGIYDVKWNDGLRSNFSLYGRNFGDIDDSSNSVQNYILTMNHFAGPLQMMVSGLRAKDNDERKDSNGNLAKGDAANTGVHALLGLHNDSFYGLRDGSSKTALLYGHGLGAEVKGIGSDGALRPGADTWRIASYGTTPLSENWSVAPAMLAQRSKDRYADGDSYQWATFNLRLIQAINQNFALAYEGSYQYMDLKPEGYNDRQAVNGSFYKLTFAPTFKVGSIGDFFSRPEIRFYTSWMDWSKKLNNYASDDALGSDGFNSGGEWSFGVQMETWF | soluble
MSLEAVIFDMDGVLMDTEPLYFEAYRRVAESYGKPYTEDLHRRIMGVPEREGLPILMEALEIKDSLENFKKRVHEEKKRVFSELLKENPGVREALEFVKSKRIKLALATSTPQREALERLRRLDLEKYFDVMVFGDQVKNGKPDPEIYLLVLERLNVVPEKVVVFEDSKSGVEAAKSAGIERIYGVVHSLNDGKALLEAGAVALVKPEEILNVLKEVLEGHHHHHH | soluble
MRAWPIHLHVGSIERSSALLVGGCNVVYGLSSHEKSNVGFGEVGSQSWIAQNRVLLFDPDGIDMPVDDRDMHVLQTRQQAPIDTRIAFQGLGVNSMQQNAGVFVGDAQITGWDQHQKSNKASGDIGGDHNVEIAGLHVNYDADGMDGVFLDSDHKAGTFVRQG | not soluble
MAFKNTKTLVFVLDGKLRNIPIAALFDGQQYLIEKYAVALSPGLQLMAAQSLEQNKIKAIVAGISESRSGFAALPAVESEVKQISQTIPSSMLLNQKFTSQALADRIKSSRADVVHLATHGQFSSRIEDTFLLTWDGQVNVKDLSELLKNRSGDSSKAIELLVLSACDTATGDDRAVLGLAGLAVKSGARSTIATLWPVKDKAAEMLMTRFYDQLRKPKITKAEALRQAQINLIHQTDFQDPFFWSAFVLVGNWLLEHHHHHH | not soluble
MNNSLSDKYNSSSTTLCSSVHAESCPTDTEDAIIRNIKLPGFRGNISRALSQKSNSPSGCRTPTPKTAPPSYEQFQVLRRNSMKSSVQPQRNGILSPAPPVPTSSRANTITVNGAHVQQAMNRIDMSTDSANTILRSPYSTRSDSITSVDSGQCSGDQIERRSNCSTRQESKDDDDTGMPSYARMASTMDHVLRTSSALYTLLSSALDPATCRDLLAKSSVFIQLLESSPCTNYLPKTEMARLKMNVQELQKNRDKGIIDMNNMTNFFAILLRKSIESVLLVFVRIISKNLCESNGKDRLTPICLEHLIHICLFGDELCIEAIQKGCISSVIRIMKNDQPQENTLRFLLRTLAVLCGVSKGALALLTQGGLDLVIDRLLSISSSICSVEAAGILTQLTNPQSAFIRLNHVEPIISRLLDLIDQCKSGDSLLLATAALNNVTLQNPNGVDIMYRNNSIRRLISAYNRENCATVFVQEQIVTAFSRLAARHLDHQMVDQNAIPVLLEFLSLTHPIHADYCRRIRYKAAVCIGTLANSEIGLKALYGNNAYAILSNVLYDDNNSSNPFNMICNNIRTKLESKYQSESAV | not soluble
MYSLIRHGRSLVELQKWRHLRVLVQKASPLSNSFSSASAARLSPRVGRKGKSFTVSYLVDSLGLPKKLAESVSRKVSFEDKDNPDSVLNLLRSHGFTDSQISTIVTDYPQLLVADAEKSLAPKLQFLQSRGASSSELTEIVSTVPKILGKRGHKTISVFYDFIKETLLDKSSKSEKSCQPFPQGNLENKIRNLSVLRELGMPHKLLFPLLISCDVPVFGKEKFEESLKKVVEMGFDPSTSKFVEALCVVQRLSDKNIEDKVNAYKRLGFDVEYVWTVFKRWPNFLTHSEKKILNTIETFLGLGFSRDEFSVLIKRFPQGIGLSAEMVKKKTEFLVKKMNWPLKALVSNPAVLGYSLEKRTVPRGNVVQALISKGLIGSELPSISRVFVCTDQVFLNRYVKRHEDKQLETELMAIYRAS | soluble
MRGSHHHHHHGSMDAQSAAKCLTAVRRHSPLVHSITNNVVTNFTANGLLALGASPVMAYAKEEVADMAKIAGALVLNIGTLSKESVEAMIIAGKSANEHGVPVILDPVGAGATPFRTESARDIIREVRLAAIRGNAAEIAHTVGVTDWLIKGVDAGEGGGDIIRLAQQAAQKLNTVIAITGEVDVIADTSHVYTLHNGHKLLTKVTGAGSLLTSVVGAFCAVEENPLFAAIAAISSYGVAAQLAAQQTADKGPGSFQIELLNKLSTVTEQDVQEWATIERVTVS | soluble
MHKIRVIESTLGYPQKNRMESESYEGVQTYMDMKDGSLIAVQPNKDDLMSQILSPDNLNRAYLQVVRNKGVGGVDRMDFKQLLPYLHEHKSELIESIRIGRYKPNSVRRVDIAKDNGKKRLIGIPTVVDRLIQQAIVQVLSPIYERQFSPSSFGFRPDVVRMLEHHHHHH | not soluble
KEIIVNENDILLLWDGSNAGEIFLGKKGILSSTMVKLEQKNKIMDDLYLFYSLKLKESFLKSQTKGTGIPHVDKKIFENIKIPLPPLEEQKQIAKILSDFDN | not soluble
GSHVSKREDGRLDHELRPVIITRGFTENPAGSVLIEFGHTKVLCTASVTEGVPRWRKATGLGWLTAEYAMLPSATHSRSDRESVRGRLSGRTQEISRLIGRSLRACIDLAALGENTIAIDCDVLQADGGTRTAAITGAYVALADAVTYLSAAGKLSDPRPLSCAIAAVSVGVVDGRIRVDLPYEEDSRAEVDMNVVATDTGTLVEIQGTGEGATFARSTLDKLLDMALGACDTLFAAQRDALALPYPGVLPQGPPPPKAFGT | soluble
